Experimental data as given in patent US20240350835A1 (AMBRX, published 2024).

Key:
[1] = biological target: T1, prostate specific membrane antigen (PSMA) (UniProt Q04609 1-750, limits assumed); experiment: cell-based or functional assay
[2] = biological target: T1, prostate specific membrane antigen …; experiment: FACS, HEK293 supernatants on LnCap cells expressing PSMA
Source text: Example 2: Antibody Humanization-Parental mouse J591 (Liu et al., Cancer Research, 57, […], 1997) antibody was humanized by selecting human frameworks based on sequence identity with the mouse framework sequence. The light chain and heavy chain CDRs from the mouse antibody were grafted onto the human frameworks, respectively, and analyzed for binding to PSMA antigen. Humanized variants were generated by pairing four human heavy chain frameworks with six light chain frameworks. The variants were expressed transiently in HEK293 cells and the supernatants were tested for binding to the PSMA antigen expressed in LnCap cells by FACS. Table 4 describes a selected heavy chain variable region sequence and 4 light chain variable region sequences used for further studies. […] ID Nos: 8 and the light chain sequence of SEQ. […] ID Nos: 10 and the light chain sequence of SEQ. […] ID Nos: 12 and the light chain sequence of SEQ. […] ID Nos: 14 and the light chain sequence of SEQ. ID Nos: 15.

T1 sequence (Q04609 whole entry): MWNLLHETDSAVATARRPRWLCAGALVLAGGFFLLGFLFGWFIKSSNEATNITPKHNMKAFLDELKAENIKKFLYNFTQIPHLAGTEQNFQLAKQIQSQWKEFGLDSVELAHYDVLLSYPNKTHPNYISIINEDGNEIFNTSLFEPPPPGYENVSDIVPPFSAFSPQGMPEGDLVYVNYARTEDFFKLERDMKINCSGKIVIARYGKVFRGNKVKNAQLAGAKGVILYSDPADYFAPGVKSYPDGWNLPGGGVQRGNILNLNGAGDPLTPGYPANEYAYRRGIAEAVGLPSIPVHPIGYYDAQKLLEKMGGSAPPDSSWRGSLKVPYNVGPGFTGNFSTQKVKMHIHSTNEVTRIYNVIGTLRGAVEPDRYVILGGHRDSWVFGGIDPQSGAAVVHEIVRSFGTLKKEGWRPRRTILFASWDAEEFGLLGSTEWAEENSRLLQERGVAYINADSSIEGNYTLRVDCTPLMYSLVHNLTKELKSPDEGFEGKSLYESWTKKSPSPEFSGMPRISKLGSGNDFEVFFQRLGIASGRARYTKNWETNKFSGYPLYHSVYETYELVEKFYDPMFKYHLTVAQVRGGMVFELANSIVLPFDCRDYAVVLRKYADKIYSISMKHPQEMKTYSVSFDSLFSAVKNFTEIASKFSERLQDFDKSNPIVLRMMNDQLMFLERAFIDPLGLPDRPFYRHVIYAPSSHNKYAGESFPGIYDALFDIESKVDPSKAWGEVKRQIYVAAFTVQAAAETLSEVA

Row | Binder | Cell Killing (%), C4-2 cell line [1] [%] | IC50 (nM), in vitro cell killing in C4-2 cell line (Cell Titer Glo, 96 h) [1] [nM] | binding result [2]
1 | Humanized Anti-PSMA Antibody Variant 1 ADC, MMAF payload, Short Cleavable (Valine-Citruline-Acetyl) linker (antibody, human IgG1, kappa, V domains shown, para-acetyl phenylalanine (pAF) at position A114 (Kabat numbering; first residue of the heavy chain constant region), conjugated to short cleavable (Valine-Citruline-Acetyl) MMAF drug-linker) VH: QVQLVQSGAEVKKPGASVKVSCKASGYTFTEYTIHWVRQAPGQRLEWMGNINPNNGGTTYNQKFEDRVTITRDTSASTAYMELSSLRSEDTAVYYCAAGWNFDYWGQGTTLTVSS VL: DIQLTQSPSFLSASVGDRVTITCKASQDVGTAVDWYQQKPGKAPKLLIYWASTRHTGVPSRFSGSGSGTEFTLTISSLQPEDFATYYCQQYNSYPLTFGGGTKVEIKR | 92 | 0.064 | 
2 | Humanized Anti-PSMA Antibody Variant 1 ADC, MMAF payload, Cleavable (Val-Citruline-PEG1) linker (antibody, human IgG1, kappa, V domains shown, para-acetyl phenylalanine (pAF) at position A114 (Kabat numbering; first residue of the heavy chain constant region), conjugated to cleavable (Val-Citruline-PEG1) MMAF drug-linker) VH: QVQLVQSGAEVKKPGASVKVSCKASGYTFTEYTIHWVRQAPGQRLEWMGNINPNNGGTTYNQKFEDRVTITRDTSASTAYMELSSLRSEDTAVYYCAAGWNFDYWGQGTTLTVSS VL: DIQLTQSPSFLSASVGDRVTITCKASQDVGTAVDWYQQKPGKAPKLLIYWASTRHTGVPSRFSGSGSGTEFTLTISSLQPEDFATYYCQQYNSYPLTFGGGTKVEIKR | 91 | 0.066 | 
3 | Humanized Anti-PSMA Antibody Variant 2 ADC, MMAE payload, Non-Cleavable (PEG3) linker (antibody, human IgG1, kappa, V domains shown, para-acetyl phenylalanine (pAF) at position A114 (Kabat numbering; first residue of the heavy chain constant region), conjugated to non-cleavable (PEG3) MMAE drug-linker) VH: QVQLVQSGAEVKKPGASVKVSCKASGYTFTEYTIHWVRQAPGQRLEWMGNINPNNGGTTYNQKFEDRVTITRDTSASTAYMELSSLRSEDTAVYYCAAGWNFDYWGQGTTLTVSS VL: DIQLTQSPSFLSASVGDRVTITCKASQDVGTAVDWYQQKPGKAPKLLIYWASTRHTGVPSRFSGSGSGTEFTLTISSLQSEDFATYYCQQYNSYPLTFGGGTKVEIKR | 67 | 12.5 | 
4 | Humanized Anti-PSMA Antibody Variant 2 ADC, MMAF payload, Cleavable (Val-Citruline-PEG1) linker (antibody, human IgG1, kappa, V domains shown, para-acetyl phenylalanine (pAF) at position A114 (Kabat numbering; first residue of the heavy chain constant region), conjugated to cleavable (Val-Citruline-PEG1) MMAF drug-linker) VH: QVQLVQSGAEVKKPGASVKVSCKASGYTFTEYTIHWVRQAPGQRLEWMGNINPNNGGTTYNQKFEDRVTITRDTSASTAYMELSSLRSEDTAVYYCAAGWNFDYWGQGTTLTVSS VL: DIQLTQSPSFLSASVGDRVTITCKASQDVGTAVDWYQQKPGKAPKLLIYWASTRHTGVPSRFSGSGSGTEFTLTISSLQSEDFATYYCQQYNSYPLTFGGGTKVEIKR | 91 | 0.051 | 
5 | Humanized Anti-PSMA Antibody Variant 1 ADC, MMAF payload, Non-Cleavable (PEG3) linker (antibody, human IgG1, kappa, V domains shown, para-acetyl phenylalanine (pAF) at position A114 (Kabat numbering; first residue of the heavy chain constant region), conjugated to non-cleavable (PEG3) MMAF drug-linker) VH: QVQLVQSGAEVKKPGASVKVSCKASGYTFTEYTIHWVRQAPGQRLEWMGNINPNNGGTTYNQKFEDRVTITRDTSASTAYMELSSLRSEDTAVYYCAAGWNFDYWGQGTTLTVSS VL: DIQLTQSPSFLSASVGDRVTITCKASQDVGTAVDWYQQKPGKAPKLLIYWASTRHTGVPSRFSGSGSGTEFTLTISSLQPEDFATYYCQQYNSYPLTFGGGTKVEIKR | 80.5 | 0.543 | 
6 | Humanized Anti-PSMA Antibody Variant 2 ADC, MMAE payload, Short Cleavable (Valine-Citruline-Acetyl) linker (antibody, human IgG1, kappa, V domains shown, para-acetyl phenylalanine (pAF) at position A114 (Kabat numbering; first residue of the heavy chain constant region), conjugated to short cleavable (Valine-Citruline-Acetyl) MMAE drug-linker) VH: QVQLVQSGAEVKKPGASVKVSCKASGYTFTEYTIHWVRQAPGQRLEWMGNINPNNGGTTYNQKFEDRVTITRDTSASTAYMELSSLRSEDTAVYYCAAGWNFDYWGQGTTLTVSS VL: DIQLTQSPSFLSASVGDRVTITCKASQDVGTAVDWYQQKPGKAPKLLIYWASTRHTGVPSRFSGSGSGTEFTLTISSLQSEDFATYYCQQYNSYPLTFGGGTKVEIKR | 81.5 | 0.52 | 
7 | Humanized Anti-PSMA (full length) Variant 2 (antibody, human IgG1, kappa, V domains shown, Humanized J591 (CDR graft), full length; expressed transiently in HEK293 cells, supernatant tested by FACS on LnCap cells; also called humanized anti-PSMA variant 2; Humanized Anti-PSMA Antibody Variant 2) VH: QVQLVQSGAEVKKPGASVKVSCKASGYTFTEYTIHWVRQAPGQRLEWMGNINPNNGGTTYNQKFEDRVTITRDTSASTAYMELSSLRSEDTAVYYCAAGWNFDYWGQGTTLTVSS VL: DIQLTQSPSFLSASVGDRVTITCKASQDVGTAVDWYQQKPGKAPKLLIYWASTRHTGVPSRFSGSGSGTEFTLTISSLQSEDFATYYCQQYNSYPLTFGGGTKVEIKR |  |  | binds
8 | Humanized Anti-PSMA (full length) Variant 3 (antibody, human IgG1, kappa, V domains shown, Humanized J591 (CDR graft), full length; expressed transiently in HEK293 cells, supernatant tested by FACS on LnCap cells; also called humanized anti-PSMA variant 3) VH: QVQLVQSGAEVKKPGASVKVSCKASGYTFTEYTIHWVRQAPGQRLEWMGNINPNNGGTTYNQKFEDRVTITRDTSASTAYMELSSLRSEDTAVYYCAAGWNFDYWGQGTTLTVSS VL: DIQLTQSPSFLSASVGDRVTITCKASQDVGTAVDWYQQKPGKAPKLLIYWASTRHTGVPDRFSGSGSGTEFTLTISSLQPEDFATYYCQQYNSYPLTFGGGTKVEIKR |  |  | binds
9 | Humanized Anti-PSMA (full length) Variant 4 (antibody, human IgG1, kappa, V domains shown, Humanized J591 (CDR graft), full length; expressed transiently in HEK293 cells, supernatant tested by FACS on LnCap cells; also called humanized anti-PSMA variant 4) VH: QVQLVQSGAEVKKPGASVKVSCKASGYTFTEYTIHWVRQAPGQRLEWMGNINPNNGGTTYNQKFEDRVTITRDTSASTAYMELSSLRSEDTAVYYCAAGWNFDYWGQGTTLTVSS VL: DIQLTQSPSFLSASVGDRVTITCKASQDVGTAVDWYQQKPGKAPKLLIYWASTRHTGVPSRFSGSGSGTEFTLTISNLQPEDFATYYCQQYNSYPLTFGGGTKVEIKR |  |  | binds
